What was measured:
POT1 (POT1-N) [1] = target: T1, POT1 (POT1-N) (UniProt Q9NUX5); experiment: FTSA (SYPRO Orange); conditions: PNA backbone; printed as TTAGGGTTAG-O; 20 mM potassium phosphate, 180 mM KCl, pH 7.2; FTSA 20-99 °C, typically 5 uM POT1 and 50 uM DNA
T1 sequence: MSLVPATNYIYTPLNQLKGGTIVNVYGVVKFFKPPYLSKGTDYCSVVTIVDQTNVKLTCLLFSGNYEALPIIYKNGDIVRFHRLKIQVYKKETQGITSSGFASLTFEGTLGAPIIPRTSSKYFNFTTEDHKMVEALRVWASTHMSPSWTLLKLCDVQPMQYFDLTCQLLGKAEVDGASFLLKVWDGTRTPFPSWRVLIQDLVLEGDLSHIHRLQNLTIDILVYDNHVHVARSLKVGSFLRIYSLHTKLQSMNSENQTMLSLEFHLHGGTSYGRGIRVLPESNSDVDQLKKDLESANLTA

POT1 (POT1-N) [2] = target: T2, POT1 (POT1-N) (UniProt Q9NUX5 1-299); experiment: FTSA titration (SYPRO Orange), Model 2; dCp_b fixed at 0; binding enthalpy and entropy fitted; dG25 -57.7 kJ/mol; 20 mM potassium phosphate, 180 mM KCl, pH 7.2; FTSA 20-99 °C, typically 5 uM POT1 and 50 uM DNA; conditions: protein: recombinant; tags: C-terminal 6xHis; single strand
T2 sequence: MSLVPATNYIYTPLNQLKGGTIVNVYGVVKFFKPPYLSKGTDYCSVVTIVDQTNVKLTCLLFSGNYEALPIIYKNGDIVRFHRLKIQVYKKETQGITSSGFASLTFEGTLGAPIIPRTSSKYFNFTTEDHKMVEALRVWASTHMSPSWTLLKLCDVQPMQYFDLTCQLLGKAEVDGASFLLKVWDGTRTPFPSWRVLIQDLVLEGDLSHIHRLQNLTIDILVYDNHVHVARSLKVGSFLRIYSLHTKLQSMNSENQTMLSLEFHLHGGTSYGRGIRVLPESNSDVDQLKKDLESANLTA

POT1 (POT1-N) [3] = target: T2, POT1 (POT1-N); experiment: FTSA titration (SYPRO Orange), Model 3; dCp_b 0; binding entropy and unfolding enthalpy fitted; dG25 -57.9 kJ/mol; 20 mM potassium phosphate, 180 mM KCl, pH 7.2; FTSA 20-99 °C, typically 5 uM POT1 and 50 uM DNA; conditions: protein: recombinant; tags: C-terminal 6xHis; single strand
POT1 (POT1-N) [4] = target: T2, POT1 (POT1-N); experiment: FTSA titration (SYPRO Orange), Model 1; dCp_b -4300 J/mol/K; binding enthalpy fixed at -139 kJ/mol; dG25 -66.1 kJ/mol; 20 mM potassium phosphate, 180 mM KCl, pH 7.2; FTSA 20-99 °C, typically 5 uM POT1 and 50 uM DNA; conditions: protein: recombinant; tags: C-terminal 6xHis; single strand
POT1 (POT1-N) [5] = target: T2, POT1 (POT1-N); experiment: FTSA (SYPRO Orange); no appreciable Tm shift; 20 mM potassium phosphate, 180 mM KCl, pH 7.2; FTSA 20-99 °C, typically 5 uM POT1 and 50 uM DNA; conditions: protein: recombinant; tags: C-terminal 6xHis; single strand

How did the binding signal (°C (delta Tm)) (POT1 (POT1-N) [1]) turn out when TTAGGGTTAG [PNA of O1] was run?
The binding signal (°C (delta Tm)) was 1.

Which Ka (POT1 (POT1-N) [2]) does the source give for TTAGGGTTAG (ssDNA) [O1] here?
Its Ka is 1e+10 M⁻¹.

What about the Ka (POT1 (POT1-N) [3]) of the same molecule?
Its Ka is 1e+10 M⁻¹.

What about the Ka (POT1 (POT1-N) [4]) of the same molecule?
The Ka was 4e+11 M⁻¹.

Does CTAACCCTAA (ssDNA) [O1c (negative control)] bind (POT1 (POT1-N) [5])?
Result: no binding

Source: PMC8009405, “POT1 stability and binding measured by fluorescence thermal shift assays”
